B1: mRNA-splicing (parent)
chain: AGUUGCUGCUGGGAGCUCCAGCACAGUGAAAUGGACAGAAGGGCAGAGCAA

Variants of: B1
Assay: exon inclusion enrichment index; higher = more inclusion; WT1 exon 5 minigene, HEK293

Row | Variant | exon inclusion enrichment index
1 | AGUUACCACCGGGAGCUCCAGCACAGUGAAAUGGACACCAGGGCAGAGCAA [G5A U7C G8A U10C G38C A39C] | 2.25
2 | ACGUAGGGAUGGGAGCUCCAGCACAGUGAAAUGGACAGAAGGGCAGAGCAA [G2C U3G G5A C6G U7G C9A] | 0.00533
3 | AGUUGCUGCUGGGAGCUCCAGCACUCUGAAAUGGACAGAAGGGCAGAGCAA [A25U G26C] | 0.235
4 | AGUUCUUCUCGGGAGCUCCAGAACAGUGAAAUGGACAGAAGGGCAGAGCAA [G5C C6U G8C C9U U10C C22A] | 1.57
5 | AGUUGAAGAAGGGAGCUCCAGCACAGUGAAAUGGACAGAAGGGCGGAGCAA [C6A U7A C9A U10A A45G] | 1.6
6 | AGUUUGAGAAGGGAGCUCCAGCACAGUGAAAUGGACAGAAGGGCAGAGCAA [G5U C6G U7A C9A U10A] | 0.147
7 | AGUUACCACCGGGAGCUCCAGCACAGUGAAAUGGACAGAAGGGCAUAGCAA [G5A U7C G8A U10C G46U] | 1.6
8 | AGUUAGGGAUGGGAGCUCCGCCACAGUGAAAUGGACAGAAGGGCAGAGCAA [G5A C6G U7G C9A A20G G21C] | 0.00328
9 | AGUUCUUCGAGGGAGCUCCAGCACAGUGAAAUGGACAGAAGGGCAGAGCAA [G5C C6U G8C C9G U10A] | 3.12
10 | AGUUAUAUAUGGGAGCUCCAGCACAGUGAUGUGGACAGAAGGGCAGAGCAA [G5A C6U U7A G8U C9A A30U A31G] | 0.0609
11 | AGUUCUUCUCGGGGGCUCCAGCACAGUGAAAUGGACAGAAGGGCAGAGCAA [G5C C6U G8C C9U U10C A14G] | 1.2
12 | AGUUGAAGAAGGGAGCUAGAGCACAGUGAAAUGGACAGAAGGGCAGAGCAA [C6A U7A C9A U10A C18A C19G] | 0.0285
13 | AGUUACUGCCGGGAGCUCCAGCACAGUGAAAUGGACAGAAGGGCAGAGCAA [G5A U10C] | 2.01
14 | AGUUGACGACGGGAGCUCCAGCACAUUGAAAUGGACAGAAGGGCAGAGCAA [C6A U7C C9A U10C G26U] | 3.34
15 | AGUUCUUCUCGGGAGCUCCAGCACAGUGAAAUGGACAGAAAGGCAGAGCAA [G5C C6U G8C C9U U10C G41A] | 1.33
16 | AGUUGAAGAAGGGAGCUCCAGCACAGUGAAAUGGACAGAAGGGCCUAGCAA [C6A U7A C9A U10A A45C G46U] | 0.191
17 | AGUUCGCGCCGGGAGCUCGGGCACAGUGAAAUGGACAGAAGGGCAGAGCAA [G5C C6G U7C U10C C19G A20G] | 2.13
18 | AGUUCACACAGGGAGCUCCAGCACAGUGAAAUGGACAGAUGGGCAGAGCAA [G5C C6A U7C G8A U10A A40U] | 0.0713
19 | AGUUCGCGCCGGGAGCUCCAGCACAGUGAAAUGCGCAGAAGGGCAGAGCAA [G5C C6G U7C U10C G34C A35G] | 2.84
20 | AGUUGCUGCUGGCAGCUCCAGCACAGUGAAAUGGACAGAAGGGCAGAGCAA [G13C] | 0.0504
21 | AGUUGACGACGGGAGCUCCACUACAGUGAAAUGGACAGAAGGGCAGAGCAA [C6A U7C C9A U10C G21C C22U] | 3.3
22 | AGUUAUAUAUGGGAGCUCCAGCACAGUGAAAUGGAAAGAAGGGCAGAGCAA [G5A C6U U7A G8U C9A C36A] | 0.0298
23 | AGUUAUAUAUGGGAGCUGGAGCACAGUGAAAUGGACAGAAGGGCAGAGCAA [G5A C6U U7A G8U C9A C18G C19G] | 0.0648
24 | AGUUGCUGCUGGGAGCUCCAGCACAGUGAAAUGGACAGAUAGGCAGAGCAA [A40U G41A] | 0.00196
25 | AGUUCUUCUCGGGAGCUCCAGCACAGUGAAAUCAACAGAAGGGCAGAGCAA [G5C C6U G8C C9U U10C G33C G34A] | 1.24
26 | AGUUGCGGCUGGGAGCUCCAGCACAGUGAAAUGGACAGAAGGGCAGAGCAA [U7G] | 0.183

Row | Variant | exon inclusion enrichment index
27 | AGUUCACACAGGGAGCUCCAGCACAGUAAAAUGGACAGAAGGGCAGAGCAA [G5C C6A U7C G8A U10A G28A] | 0.0118
28 | AGUUCACACAGGGAGCUCCAGCACAGUGAAAUGGACAGAAGGGCAAGGCAA [G5C C6A U7C G8A U10A G46A A47G] | 0.0332
29 | AGUUGAAGAAGGGAGCUCCAGCACAGUGUUAUGGACAGAAGGGCAGAGCAA [C6A U7A C9A U10A A29U A30U] | 0.198
30 | AGUUACCACCGGGAACUCCAGCACAGUGAAAUGGACAGAAGGGCAGAGCAA [G5A U7C G8A U10C G15A] | 2.02
31 | AGUUCUUCUCGGGAGCUCCAGCACAGUGAAAUGGUAAGAAGGGCAGAGCAA [G5C C6U G8C C9U U10C A35U C36A] | 0.00287
32 | AGUUUCUGGUGGGAGCUCCAGCACAGUGAAAUGGACAGAAGGGCAGAGCAA [G5U C9G] | 0.253
33 | AGUUAUAUAUGGGAGCUCCAGCACAGUGGUAUGGACAGAAGGGCAGAGCAA [G5A C6U U7A G8U C9A A29G A30U] | 0.00704
34 | AGUUACCACCGGGAGCUCCAGCACAGUGAAAUGGGCAGAAGGGCAGAGCAA [G5A U7C G8A U10C A35G] | 0.89
35 | AGUUAGGGAUGGUGGCUCCAGCACAGUGAAAUGGACAGAAGGGCAGAGCAA [G5A C6G U7G C9A G13U A14G] | 0.00052
36 | AGUUAGGGAUGUGAGCUCCAGCACAGUGAAAUGGACAGAAGGGCAGAGCAA [G5A C6G U7G C9A G12U] | 0.00152
37 | AGUUAUAUCCGGGAGCUCCAGCACAGUGAAAUGGACAGAAGGGCAGAGCAA [G5A C6U U7A G8U U10C] | 1.03
38 | AGUUCACACAGGGCCCUCCAGCACAGUGAAAUGGACAGAAGGGCAGAGCAA [G5C C6A U7C G8A U10A A14C G15C] | 0.00871
39 | AGUUGAAGACCGGAGCUCCAGCACAGUGAAAUGGACAGAAGGGCAGAGCAA [C6A U7A C9A U10C G11C] | 4.28
40 | AGUUCUUCUCGGGAGCUCCAGCACAGUGAAAUGGACAGAAGGAUAGAGCAA [G5C C6U G8C C9U U10C G43A C44U] | 2
41 | AGUUAGGGAUGGGAGCUCCAGCACAGUGAAAUGGAAAGAAGGGCAGAGCAA [G5A C6G U7G C9A C36A] | 0.000983
42 | AGUUACCACCGGGAGCUCCAGCACGCUGAAAUGGACAGAAGGGCAGAGCAA [G5A U7C G8A U10C A25G G26C] | 3.84
43 | AGUUACCACCGGGAGCUCCAGCACAGUGAAAUGAACAGAAGGGCAGAGCAA [G5A U7C G8A U10C G34A] | 1.51
44 | AGAGACCACCGGGAGCUCCAGCACAGUGAAAUGGACAGAAGGGCAGAGCAA [U3A U4G G5A U7C G8A U10C] | 3.06
45 | AGUUACUUAUGGGAGCUCCAGCACAGUGAAAUGGACAGAAGGGCAGAGCAA [G5A G8U C9A] | 0.187
46 | AGUUGACGACGGGAGGCCCAGCACAGUGAAAUGGACAGAAGGGCAGAGCAA [C6A U7C C9A U10C C16G U17C] | 1.82
47 | AGUUCACACAGGGGACUCCAGCACAGUGAAAUGGACAGAAGGGCAGAGCAA [G5C C6A U7C G8A U10A A14G G15A] | 0.119
48 | AGUUCGCGCCGGAAGCUCCAGCACAGUGAAAUGGACAGAAGGGCAGAGCAA [G5C C6G U7C U10C G13A] | 3.34
49 | AGUUUCUUUUGGGAGCUCCAGCACAGUGAAAUGGCCAGAAGGGCAGAGCAA [G5U G8U C9U A35C] | 0.0257
50 | AGUUCACACAGGGAGCAACAGCACAGUGAAAUGGACAGAAGGGCAGAGCAA [G5C C6A U7C G8A U10A U17A C18A] | 0.043
51 | AGUUGAAGAAGGGAGCUCCAGCAUUGUGAAAUGGACAGAAGGGCAGAGCAA [C6A U7A C9A U10A C24U A25U] | 0.761

Reference: the RNAGym collection of RNA variant scans (doi:10.1101/gr.219683.116)
